# Measurements: US20170327844A1
# Molecular target: cation-independent mannose 6-phosphate (M6P) receptor (MPR) (UniProt P11717)
# Experiment: cell-based or functional assay
# Sequence of UniProt P11717 (P11717 41-2491): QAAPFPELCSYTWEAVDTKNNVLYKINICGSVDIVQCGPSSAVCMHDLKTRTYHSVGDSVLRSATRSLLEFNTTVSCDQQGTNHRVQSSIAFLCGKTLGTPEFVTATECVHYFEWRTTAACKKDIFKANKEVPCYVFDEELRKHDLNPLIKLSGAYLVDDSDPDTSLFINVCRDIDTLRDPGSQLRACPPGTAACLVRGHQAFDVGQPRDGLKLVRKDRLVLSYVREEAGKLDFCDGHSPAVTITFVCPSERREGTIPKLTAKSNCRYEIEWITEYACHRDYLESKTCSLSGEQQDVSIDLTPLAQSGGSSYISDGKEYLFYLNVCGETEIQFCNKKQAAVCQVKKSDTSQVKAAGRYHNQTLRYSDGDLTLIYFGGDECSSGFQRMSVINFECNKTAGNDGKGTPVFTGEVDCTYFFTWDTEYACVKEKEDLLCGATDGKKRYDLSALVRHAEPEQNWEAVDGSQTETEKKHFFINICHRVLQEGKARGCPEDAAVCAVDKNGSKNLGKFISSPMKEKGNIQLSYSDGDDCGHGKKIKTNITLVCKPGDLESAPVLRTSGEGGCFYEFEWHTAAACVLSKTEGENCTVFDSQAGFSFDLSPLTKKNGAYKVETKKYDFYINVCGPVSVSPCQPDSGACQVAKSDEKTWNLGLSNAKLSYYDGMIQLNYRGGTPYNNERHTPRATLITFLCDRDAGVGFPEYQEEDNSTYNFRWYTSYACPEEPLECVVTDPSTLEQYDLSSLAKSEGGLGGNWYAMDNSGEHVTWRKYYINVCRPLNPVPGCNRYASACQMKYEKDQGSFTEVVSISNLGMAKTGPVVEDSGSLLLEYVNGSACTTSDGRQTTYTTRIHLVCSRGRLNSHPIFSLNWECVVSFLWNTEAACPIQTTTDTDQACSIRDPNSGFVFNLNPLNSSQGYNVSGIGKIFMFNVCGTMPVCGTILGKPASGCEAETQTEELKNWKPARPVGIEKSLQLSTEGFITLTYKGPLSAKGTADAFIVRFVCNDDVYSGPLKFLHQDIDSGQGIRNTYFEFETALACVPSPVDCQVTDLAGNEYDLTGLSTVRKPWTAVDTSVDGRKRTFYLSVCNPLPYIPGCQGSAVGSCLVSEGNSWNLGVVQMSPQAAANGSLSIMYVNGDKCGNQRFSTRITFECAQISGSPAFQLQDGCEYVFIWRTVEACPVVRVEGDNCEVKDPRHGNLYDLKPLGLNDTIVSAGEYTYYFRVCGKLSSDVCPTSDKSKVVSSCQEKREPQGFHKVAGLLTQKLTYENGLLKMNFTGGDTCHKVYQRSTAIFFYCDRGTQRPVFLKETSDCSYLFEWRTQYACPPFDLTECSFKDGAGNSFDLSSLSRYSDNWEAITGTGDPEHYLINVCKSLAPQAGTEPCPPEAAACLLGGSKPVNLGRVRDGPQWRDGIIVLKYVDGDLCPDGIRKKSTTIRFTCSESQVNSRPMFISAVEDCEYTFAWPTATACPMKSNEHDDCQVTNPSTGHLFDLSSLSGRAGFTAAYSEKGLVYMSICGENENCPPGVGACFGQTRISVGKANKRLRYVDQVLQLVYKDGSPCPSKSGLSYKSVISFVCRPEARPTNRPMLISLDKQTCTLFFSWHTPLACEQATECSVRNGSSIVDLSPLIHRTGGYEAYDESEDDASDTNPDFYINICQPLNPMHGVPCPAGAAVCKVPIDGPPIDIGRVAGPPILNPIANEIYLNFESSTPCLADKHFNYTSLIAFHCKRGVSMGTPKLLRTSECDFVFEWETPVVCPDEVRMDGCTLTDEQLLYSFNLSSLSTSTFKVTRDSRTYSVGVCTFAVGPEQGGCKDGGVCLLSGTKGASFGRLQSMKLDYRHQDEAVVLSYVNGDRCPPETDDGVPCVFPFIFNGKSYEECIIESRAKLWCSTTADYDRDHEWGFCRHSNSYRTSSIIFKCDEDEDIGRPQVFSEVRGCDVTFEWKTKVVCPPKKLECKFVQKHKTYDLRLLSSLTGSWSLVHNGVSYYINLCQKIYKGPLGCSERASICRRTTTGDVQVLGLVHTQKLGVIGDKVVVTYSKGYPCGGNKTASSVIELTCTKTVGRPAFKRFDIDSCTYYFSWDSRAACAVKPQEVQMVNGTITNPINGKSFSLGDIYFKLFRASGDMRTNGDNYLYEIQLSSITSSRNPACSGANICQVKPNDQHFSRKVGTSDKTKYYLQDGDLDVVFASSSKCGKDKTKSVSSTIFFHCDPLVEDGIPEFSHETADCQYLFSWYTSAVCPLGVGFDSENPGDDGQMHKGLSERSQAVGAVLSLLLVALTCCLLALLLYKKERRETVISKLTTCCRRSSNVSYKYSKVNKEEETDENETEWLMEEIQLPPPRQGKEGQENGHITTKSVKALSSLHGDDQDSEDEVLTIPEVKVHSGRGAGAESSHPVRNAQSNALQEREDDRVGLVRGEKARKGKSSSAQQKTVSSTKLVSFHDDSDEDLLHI
substance,measurement,value
alpha-L-iduronidase (IDUA) released by erythroid-induced MEL-KIiG cells (human IDUA cDNA) (from UniProt P35475 28-653) (enzyme),"intracellular IDUA level in LCLmps cells after uptake, relative to wild-type (% of wild-type levels)",10
same,intracellular IDUA specific activity in LCLmps cells after 3 hr uptake from conditioned medium,0.8 U/mg
